Test results: patent US20220289861A1 (ONCORESPONSE, published 2022)

Molecular target: T1, His-tagged recombinant human CD163 (R&D Systems, No. 1607-CD-050) (human, UniProt Q86VB7 42-1050, limits assumed)
T1 construct: Bought protein; also called huCD163; not shown: His tag
Experiment: ELISA on plate-coated recombinant human CD163 (5 ug/mL), anti-human IgG F(ab')2 HRP
Description: AB101 binding to His-tagged recombinant human CD163 (R&D Systems, No. 1607-CD-050) and recombinant murine CD163 (R&D Systems, No. 7435-CD-050) proteins was determined using ELISA. Recombinant proteins were diluted in PBS to 5 μg/mL and added to 384-well High binding ELISA plates (Greiner Bio-One, No. 781061) at 25 μL per well and incubated at 4° C. overnight. The plates were washed three times with PBS, using the BioTek ELx405 Select microplate washer (wash program ELISA_384_PBS_3×_wash) and then blocked with 90 μL/well of blocking buffer (2% nonfat, dry milk/PBS+0.05% Tween 20) for 1 hr at RT.
After blocking, 25 μL per well of primary antibodies were added to the plates and incubated for 1 hr at room temp. The test antibody was AB101; the control anti-huCD163 antibody was a commercially available antibody in murine IgG1 framework (R&D Systems, #MAB1607); the isotype controls were a proprietary mAb, in human IgG1, human FcNull, and murine IgG1 frameworks, with known specificity. After primary antibody binding, plates were washed three times with PBS using the EL405x (wash program ELISA_384_PBS_3×_wash). […] After development, the reaction was stopped by adding 25 μL per well of 0.3 M HCl and plates were read using the SpectraMax M5e instrument at 450 nm.

T1 sequence (Q86VB7 42-1050 limits assumed): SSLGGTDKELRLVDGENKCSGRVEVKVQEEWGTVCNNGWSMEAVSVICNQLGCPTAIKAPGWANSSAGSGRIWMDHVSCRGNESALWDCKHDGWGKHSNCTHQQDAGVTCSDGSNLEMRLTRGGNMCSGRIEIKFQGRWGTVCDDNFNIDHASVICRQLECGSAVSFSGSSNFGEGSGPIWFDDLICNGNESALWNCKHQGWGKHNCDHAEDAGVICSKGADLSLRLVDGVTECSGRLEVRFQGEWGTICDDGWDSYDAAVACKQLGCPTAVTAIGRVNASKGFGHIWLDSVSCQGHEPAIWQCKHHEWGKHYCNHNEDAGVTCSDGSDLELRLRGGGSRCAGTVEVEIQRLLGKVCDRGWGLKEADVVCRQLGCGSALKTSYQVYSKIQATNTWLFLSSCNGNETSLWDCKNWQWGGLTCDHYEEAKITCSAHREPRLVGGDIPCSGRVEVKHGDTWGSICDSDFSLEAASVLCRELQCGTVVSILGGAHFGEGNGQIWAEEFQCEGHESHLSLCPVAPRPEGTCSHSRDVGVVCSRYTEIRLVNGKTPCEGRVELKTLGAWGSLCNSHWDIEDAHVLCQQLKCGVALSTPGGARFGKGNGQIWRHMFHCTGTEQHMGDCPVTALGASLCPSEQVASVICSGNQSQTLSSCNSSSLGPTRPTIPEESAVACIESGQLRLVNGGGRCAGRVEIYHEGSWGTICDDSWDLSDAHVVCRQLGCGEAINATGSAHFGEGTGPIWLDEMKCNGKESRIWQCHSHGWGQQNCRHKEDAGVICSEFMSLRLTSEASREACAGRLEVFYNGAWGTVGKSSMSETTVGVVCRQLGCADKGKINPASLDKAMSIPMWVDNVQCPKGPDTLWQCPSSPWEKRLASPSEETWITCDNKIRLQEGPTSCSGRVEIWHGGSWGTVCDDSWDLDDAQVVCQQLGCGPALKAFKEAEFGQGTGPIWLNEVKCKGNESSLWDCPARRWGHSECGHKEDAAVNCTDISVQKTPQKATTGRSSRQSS

B1: AB102 (antibody, human IgG1, kappa)
heavy: EVQLVESGGGVVQPGRSLRLSCAASGFTFSSYAMHWVRQAPGKGLEWVAVISYDGSNKYYADSVKGRFTISRDNSKNTLYLQMNSLRAEDTAVYYCARENVRPYYDFWSGYYSEYYYYGMDVWGQGTTVTVSSASTKGPSVFPLAPSSKSTSGGTAALGCLVKDYFPEPVTVSWNSGALTSGVHTFPAVLQSSGLYSLSSVVTVPSSSLGTQTYICNVNHKPSNTKVDKRVEPKSCDKTHTCPPCPAPEFEGGPSVFLFPPKPKDTLMISRTPEVTCVVVDVSHEDPEVKFNWYVDGVEVHNAKTKPREEQYNSTYRVVSVLTVLHQDWLNGKEYKCKVSNKALPASIEKTISKAKGQPREPQVYTLPPSREEMTKNQVSLTCLVKGFYPSDIAVEWESNGQPENNYKTTPPVLDSDGSFFLYSKLTVDKSRWQQGNVFSCSVMHEALHNHYTQKSLSLSPGK
light: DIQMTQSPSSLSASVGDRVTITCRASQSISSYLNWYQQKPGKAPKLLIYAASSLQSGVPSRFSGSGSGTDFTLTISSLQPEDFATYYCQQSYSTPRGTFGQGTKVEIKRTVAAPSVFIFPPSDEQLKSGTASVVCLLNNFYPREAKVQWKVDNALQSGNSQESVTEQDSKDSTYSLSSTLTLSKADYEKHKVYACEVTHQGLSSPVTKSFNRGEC
notes: Biotinylated for the PFA immunoprecipitation and AF647-conjugated for flow cytometry; also called AB101 FcNull antibody; AB101 in FcNull framework
- EC50 (read off the curve): ~1 nM
